Among the data in article PMC3392929 (The Journal of Cell Biology, 2012) are Kd values, retold here.

In general, Kd refers to the free concentration of one partner at which half of the binding sites on the other are occupied at equilibrium, for simple one-to-one binding. Low readings indicate tighter binding, high ones weaker binding.

Assay [1] has as its target Purified β-actin (Cytoskeleton) (UniProt P60709 1-375). Kind of assay: SPR. (Surface plasmon resonance follows binding to a sensor surface in real time, without labels.)
The target is the same in assay [2]. In words: SPR. This is another data set of the same source.

B1: GST-tagged full-length Myo1c (natural protein)
chain: MALQVELIPTGEIIRVVHPHRPCKLALGSDGVRVTMESALTARDRVGVQDFVLLENFTSEAAFIENLRRRFRENLIYTYIGPVLVSVNPYRDLQIYSRQHMERYRGVSFYEVPPHLFAVADTVYRALRTERRDQAVMISGESGAGKTEATKRLLQFYAETCPAPERGGAVRDRLLQSNPVLEAFGNAKTLRNDNSSRFGKYMDVQFDFKGAPVGGHILSYLLEKSRVVHQNHGERNFHIFYQLLEGGEEETLRRLGLERNPQSYLYLVKGQCAKVSSINDKSDWKVVRKALTVIDFTEDEVEDLLSIVASVLHLGNTHFAADEESNAQVTTENQLKYLTRLLGVEGSTLREALTHRKIIAKGEELLSPLNLEQAAYARDALAKAVYSRTFTWLVAKINRSLASKDAESPSWRSTTVLGLLDIYGFEVFQHNSFEQFCINYCNEKLQQLFIELTLKSEQEEYEAEGIAWEPVQYFNNKIICDLVEEKFKGIISILDEECLRPGEATDLTFLEKLEDTIKQHPHFLTHKLADQRTRKSLDRGEFRLLHYAGEVTYNVTGFLDKNNDLLFRNLKETMCSSENPILGQCFDRSELSDKKRPETVATQFKMSLLELVEILKSKEPAYVRCIKPNDSKQPGRFDEVLIRHQVKYLGLMENLRVRRAGFAYRRKYEAFLQRYKSLCPETWPTWTGRPQDGVTVLVRHLGYKPEEYKMGRTKIFIRFPKTLFATEDALEIRRQSLATKIQATWRGFHCRQKFLRVKRSAICIQSWWRGTLGRRKAAKRKWAAQTIRRLIQGFILRHAPRCPENAFFVDHVRTSFLLNLRRQLPRNILDTSWPTPPPALREASELLRELCRKNMVWKYCRSISPEWKQQLQQKAVASEIFKGKKDNYPQSVPRLFISTRLGADEINPRVLQALGSEPIQYAVPVVKYDRKGYKPRSRQLLLTPNAVVIVEDAKVKQRIEYTNLTGISVSSLSDSLFVLHVQREDNKQKGDVVLQSDHVIETLTKTALSADRVNNININQGSITFAGGPGRDGIIDFTPGSELLITKAKNGHLAVVAPRLNSR
Molecule B1 yielded a Kd in assay [1] of no more than 2000 nM.

B2: GST-tagged Myo1c tail domain (domain or fragment)
chain: KDNYPQSVPRLFISTRLGADEINPRVLQALGSEPIQYAVPVVKYDRKGYKPRSRQLLLTPNAVVIVEDAKVKQRIEYTNLTGISVSSLSDSLFVLHVQREDNKQKGDVVLQSDHVIETLTKTALSADRVNNININQGSITFAGGPGRDGIIDFTPGSELLITKAKNGHLAVVAPRLNSR
In the case of B2, in assay [2], the Kd was no more than 2000 nM.
